This note sets out measurements from PMC9482650, “Quantitative fragmentomics allow affinity mapping of interactomes” (Nature Communications, 2022).

Targets include MAGI3_6, Q5TCQ9; MAGI1_4, Q96QZ7; PDZRN4_2, Q6ZMN7; PREX1_1, Q8TCU6; MAGI3_3, Q5TCQ9; CARD14, Q9BXL6; CNKSR3, Q6P9H4; LIMK1, P53667; TJP1_1, Q07157; MAST3, O60307; LMO7, Q8WWI1.
Common to all, as to test: holdup assay
What all share (set-up): key: below the threshold = too weak to quantify, mostly under pKd 3.1 to 4
Holding throughout (details): plain residues with an end cap or a label only (N-terminal biotin on a linker: ttds)

The target in the next test is T1, MPDZ_3, O75970.
T1 sequence (O75970 372-473, limits assumed, looked up): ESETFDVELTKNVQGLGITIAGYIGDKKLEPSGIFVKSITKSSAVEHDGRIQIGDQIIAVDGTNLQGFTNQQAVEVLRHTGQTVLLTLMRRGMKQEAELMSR

A further test deals with T2, NHERF1_1, O14745.
T2 sequence (O14745 9-104, limits assumed, looked up): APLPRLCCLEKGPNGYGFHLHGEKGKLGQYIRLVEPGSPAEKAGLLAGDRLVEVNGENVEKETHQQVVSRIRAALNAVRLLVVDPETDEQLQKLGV

Another test addresses T3, PDZD2_4, O15018.
T3 sequence (O15018 723-823, limits assumed, looked up): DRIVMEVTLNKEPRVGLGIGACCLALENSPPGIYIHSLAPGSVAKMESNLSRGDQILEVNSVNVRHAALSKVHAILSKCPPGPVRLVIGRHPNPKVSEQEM

The next test has as its target T4, SYNPO2L, Q9H987.
T4 sequence (Q9H987 1-98, limits assumed, looked up): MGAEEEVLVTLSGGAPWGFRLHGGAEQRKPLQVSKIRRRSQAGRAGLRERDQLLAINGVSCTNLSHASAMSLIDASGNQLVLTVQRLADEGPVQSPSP

The next test deals with T5, MPDZ_6, O75970.
T5 sequence (O75970 1003-1099, limits assumed, looked up): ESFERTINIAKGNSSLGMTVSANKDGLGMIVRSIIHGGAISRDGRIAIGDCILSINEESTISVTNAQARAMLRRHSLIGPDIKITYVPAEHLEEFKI

A further test addresses T6, PARD6G, Q9BYG4.
T6 sequence (Q9BYG4 153-261, limits assumed, looked up): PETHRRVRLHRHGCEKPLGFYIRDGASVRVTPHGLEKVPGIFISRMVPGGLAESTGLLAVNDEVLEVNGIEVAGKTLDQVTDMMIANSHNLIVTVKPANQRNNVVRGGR

The target of another test is T7, LNX2_4, Q8N448.
T7 sequence (Q8N448 595-690, limits assumed, looked up): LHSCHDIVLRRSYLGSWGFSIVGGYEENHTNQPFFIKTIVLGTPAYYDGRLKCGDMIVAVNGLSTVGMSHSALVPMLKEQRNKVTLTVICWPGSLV

A further test addresses T8, MPDZ_11, O75970.
T8 sequence (O75970 1720-1817, limits assumed, looked up): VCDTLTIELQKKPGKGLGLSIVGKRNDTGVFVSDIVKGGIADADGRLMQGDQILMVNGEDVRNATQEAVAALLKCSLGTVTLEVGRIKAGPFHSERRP

A further test addresses T9, PDZD2_3, O15018.
T9 sequence (O15018 581-682, limits assumed, looked up): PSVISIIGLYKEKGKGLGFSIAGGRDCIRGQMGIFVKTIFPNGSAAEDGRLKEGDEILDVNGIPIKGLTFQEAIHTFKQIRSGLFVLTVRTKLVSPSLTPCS

A further test concerns the target T10, PDLIM3, Q53GG5.
T10 sequence (Q53GG5 1-94, limits assumed, looked up): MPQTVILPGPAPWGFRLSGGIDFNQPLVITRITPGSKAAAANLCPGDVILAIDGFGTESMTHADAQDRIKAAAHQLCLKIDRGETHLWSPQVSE

For a further test, the target named is T11, SHROOM4, Q9ULL8.
T11 sequence (Q9ULL8 5-102, limits assumed, looked up): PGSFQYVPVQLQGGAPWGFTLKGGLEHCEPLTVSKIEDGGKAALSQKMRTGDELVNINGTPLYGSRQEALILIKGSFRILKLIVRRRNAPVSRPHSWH

For a further test, the target named is T12, SHANK2, Q9UPX8.
T12 sequence (Q9UPX8 621-730, limits assumed, looked up): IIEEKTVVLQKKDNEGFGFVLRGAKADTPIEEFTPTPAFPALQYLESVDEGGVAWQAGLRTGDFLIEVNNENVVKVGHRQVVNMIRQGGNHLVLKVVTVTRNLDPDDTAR

Chain of CNKSR3, Q6P9H4 (Q6P9H4 203-303): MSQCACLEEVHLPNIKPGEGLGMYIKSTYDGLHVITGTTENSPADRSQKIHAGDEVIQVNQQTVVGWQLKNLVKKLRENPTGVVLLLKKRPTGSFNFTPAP
Chain of PDZRN4_2, Q6ZMN7 (Q6ZMN7 389-498): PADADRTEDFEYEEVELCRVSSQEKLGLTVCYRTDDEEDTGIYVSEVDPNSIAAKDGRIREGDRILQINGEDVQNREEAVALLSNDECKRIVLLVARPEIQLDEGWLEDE
Chain of MAST3, O60307 (O60307 945-1048): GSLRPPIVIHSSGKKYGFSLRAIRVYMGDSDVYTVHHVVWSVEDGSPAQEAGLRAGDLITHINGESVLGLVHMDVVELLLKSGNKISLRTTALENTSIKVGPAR
Chain of MAGI3_3, Q5TCQ9 (Q5TCQ9 572-655): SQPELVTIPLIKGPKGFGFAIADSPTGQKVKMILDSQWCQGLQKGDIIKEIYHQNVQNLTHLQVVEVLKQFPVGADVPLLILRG
Chain of CARD14, Q9BXL6 (Q9BXL6 558-663): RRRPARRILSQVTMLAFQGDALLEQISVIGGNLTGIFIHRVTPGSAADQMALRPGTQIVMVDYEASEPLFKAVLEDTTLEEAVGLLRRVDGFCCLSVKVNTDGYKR
Chain of LIMK1, P53667 (P53667 155-268): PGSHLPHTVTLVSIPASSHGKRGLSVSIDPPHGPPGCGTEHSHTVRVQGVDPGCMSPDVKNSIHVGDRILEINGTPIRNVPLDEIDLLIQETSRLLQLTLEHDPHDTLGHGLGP
Chain of PREX1_1, Q8TCU6 (Q8TCU6 608-718): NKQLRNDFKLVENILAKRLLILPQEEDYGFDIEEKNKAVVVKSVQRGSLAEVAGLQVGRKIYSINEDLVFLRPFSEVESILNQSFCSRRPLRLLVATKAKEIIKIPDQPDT
Chain of TJP1_1, Q07157 (Q07157 18-120): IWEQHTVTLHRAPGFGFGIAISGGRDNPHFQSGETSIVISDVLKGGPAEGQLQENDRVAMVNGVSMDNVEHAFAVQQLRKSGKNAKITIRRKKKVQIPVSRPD
Chain of MAGI3_6, Q5TCQ9 (Q5TCQ9 1014-1103): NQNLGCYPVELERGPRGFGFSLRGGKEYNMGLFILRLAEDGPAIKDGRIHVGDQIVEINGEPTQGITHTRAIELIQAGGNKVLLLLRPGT
Chain of MAGI1_4, Q96QZ7 (Q96QZ7 other isoform, or with tags, fused parts or gaps): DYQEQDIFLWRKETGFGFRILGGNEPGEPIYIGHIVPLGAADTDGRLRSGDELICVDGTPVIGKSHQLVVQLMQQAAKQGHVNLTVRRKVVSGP
Chain of LMO7, Q8WWI1 (Q8WWI1 1037-1138): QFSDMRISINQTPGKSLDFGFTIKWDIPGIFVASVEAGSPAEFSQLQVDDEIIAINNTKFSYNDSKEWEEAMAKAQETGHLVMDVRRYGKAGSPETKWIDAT

The term pKd denotes the negative decadic logarithm of the Kd, by convention in mol/L. Take SRPQRTQTQV [HPV67-E6, A4U7F2]: the pKd entry with MPDZ_3, O75970 is listed as “below the threshold”; with MAGI3_6, Q5TCQ9, “below the threshold”; in the test with NHERF1_1, O14745, “below the threshold”; with PDZD2_4, O15018, “below the threshold”; with MAGI1_4, Q96QZ7, “below the threshold”; with SYNPO2L, Q9H987, “below the threshold”. Also, the pKd result in the test with PDZRN4_2, Q6ZMN7 is “below the threshold”; in the test with PREX1_1, Q8TCU6 it was “below the threshold”; with MAGI3_3, Q5TCQ9, “below the threshold”; with MPDZ_6, O75970 it was “below the threshold”; with CARD14, Q9BXL6, “below the threshold”; with PARD6G, Q9BYG4, “below the threshold”. In addition, the pKd result in the test with CNKSR3, Q6P9H4 is recorded as “below the threshold”; with LIMK1, P53667 it was “below the threshold”; with LNX2_4, Q8N448 it was “below the threshold”; in the test with TJP1_1, Q07157, “below the threshold”; with MPDZ_11, O75970, “below the threshold”; with MAST3, O60307, “below the threshold”. In addition, the pKd entry was “below the threshold” with PDZD2_3, O15018; “below the threshold” in the test with PDLIM3, Q53GG5; “below the threshold” with SHROOM4, Q9ULL8; “below the threshold” with SHANK2, Q9UPX8.
In the case of SSRTRRETQL [HPV16-E6, P03126], the pKd result with MPDZ_3, O75970 is “below the threshold”; with MAGI3_6, Q5TCQ9, “below the threshold”; with NHERF1_1, O14745 it was 4.15; with PDZD2_4, O15018 it was “below the threshold”; in the test with MAGI1_4, Q96QZ7, “below the threshold”; with SYNPO2L, Q9H987, “below the threshold”. Moreover, the pKd entry with PDZRN4_2, Q6ZMN7 is “below the threshold”; in the test with PREX1_1, Q8TCU6, “below the threshold”; with MAGI3_3, Q5TCQ9 it was “below the threshold”; with MPDZ_6, O75970, “below the threshold”; in the test with CARD14, Q9BXL6, “below the threshold”; with PARD6G, Q9BYG4 it was “below the threshold”. The pKd entry with CNKSR3, Q6P9H4 is “below the threshold”; with LIMK1, P53667 it was “below the threshold”; with LMO7, Q8WWI1, 4.15; with LNX2_4, Q8N448, “below the threshold”; with TJP1_1, Q07157, 4.22; in the test with MPDZ_11, O75970, “below the threshold”. Also, the pKd entry with MAST3, O60307 was “below the threshold”; with PDZD2_3, O15018, “below the threshold”; with PDLIM3, Q53GG5, 3.88; in the test with SHROOM4, Q9ULL8 it was “below the threshold”; with SHANK2, Q9UPX8, “below the threshold”.
